The numbers were not newly measured in publication PMC6557524, which cites them from elsewhere.

By Kd is commonly meant the concentration at which binding is half-saturated.

In this data set the target is CCR2 (UniProt P41597).
Chain of UniProt P41597 (P41597 whole entry): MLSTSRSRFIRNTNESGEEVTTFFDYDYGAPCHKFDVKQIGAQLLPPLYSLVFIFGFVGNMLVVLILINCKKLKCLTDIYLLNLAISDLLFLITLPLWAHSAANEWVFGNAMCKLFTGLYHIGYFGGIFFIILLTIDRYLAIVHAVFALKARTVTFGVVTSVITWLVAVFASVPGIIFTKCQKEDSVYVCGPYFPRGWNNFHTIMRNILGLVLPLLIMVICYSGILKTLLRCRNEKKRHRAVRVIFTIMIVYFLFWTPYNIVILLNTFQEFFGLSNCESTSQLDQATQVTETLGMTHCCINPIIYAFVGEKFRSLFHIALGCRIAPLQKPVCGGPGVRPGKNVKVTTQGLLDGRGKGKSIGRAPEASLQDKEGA

In the case of CCL2 (from UniProt P13500), the Kd was 2.1 nM.
